From patent publication US20090312236A1

Target: human IGF-1 receptor (human) (UniProt P08069)
Experiment: competitive radioligand SPA, [125I]IGF-1, hIGF-1R membranes

Substance: insulin lispro (ligand; other documents disagree on this pair)
- Ki: > 75 nM
